Test results published in the supplement of paper PMC5998384.

What was measured:
HeLa Kyoto [1] = test: solubility in G1/S (NP-40 vs SDS abundance) (log2 ratio); higher = more soluble; settings: cell cycle stage: G1/S
HeLa Kyoto [2] = test: solubility change mitosis vs G1/S (difference of NP-40 vs SDS log2 ratios) (log2 ratio difference); higher = more soluble in mitosis
HeLa Kyoto [3] = test: melting temperature (median over replicates), in situ; higher = more thermally stable
HeLa Kyoto [4] = test: thermal stability score vs G1/S (z-score of summed log2 fold changes over temperatures); higher = more thermally stable than in G1/S
[5] = cell cycle stage: early G1 (4.5 h after nocodazole release)
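Wherever melting temperature (median over replicates), in situ is given: HeLa Kyoto cells synchronized by double thymidine or nocodazole block, proteins quantified by TMT10plex mass spectrometry, three independent biological replicates.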
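Wherever solubility change mitosis vs G1/S (difference of NP-40 vs SDS log2 ratios) is given: synchronized HeLa Kyoto cells (double thymidine block for G1/S, nocodazole release for mitosis), protein amounts in NP-40 versus SDS lysates quantified by mass spectrometry, three biological replicates.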
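Wherever solubility in G1/S (NP-40 vs SDS abundance) is given: HeLa Kyoto cells arrested at G1/S by double thymidine block, proteins quantified by TMT10plex mass spectrometry in mild NP-40 versus SDS extracts, three biological replicates.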
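Wherever thermal stability score vs G1/S (z-score of summed log2 fold changes over temperatures) is given: synchronized HeLa Kyoto cells, proteins quantified by TMT10plex mass spectrometry, three biological replicates, mitosis taken 0.5 h after nocodazole release, G1/S directly after double thymidine block.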

Row | Sequence | solubility in G1/S (log2) (HeLa Kyoto [1]) | solubility change mitosis (log2) (HeLa Kyoto [2]) | melting temperature (HeLa Kyoto [3]; cell cycle stage: G1/S) | melting temperature (HeLa Kyoto [3]; cell cycle stage: mitosis) | thermal stability score (HeLa Kyoto [4]; [5]) | thermal stability score (HeLa Kyoto [4]; cell cycle stage: mitosis)
1 | MEPLAAYPLKCSGPRAKVFAVLLSIVLCTVTLFLLQLKFLKPKINSFYAFEVKDAKGRTVSLEKYKGKVSLVVNVASDCQLTDRNYLGLKELHKEFGPSHFSVLAFPCNQFGESEPRPSKEVESFARKNYGVTFPIFHKIKILGSEGEPAFRFLVDSSKKEPRWNFWKYLVNPEGQVVKFWKPEEPIEVIRPDIAALVRQVIIKKKEDL [GPX8] | 0.0659 | -0.208 | 52.8 °C | 52.3 °C | 3.63 | 4.95
2 | MEPSSLELPADTVQRIAAELKCHPTDERVALHLDEEDKLRHFRECFYIPKIQDLPPVDLSLVNKDENAIYFLGNSLGLQPKMVKTYLEEELDKWAKIAAYGHEVGKRPWITGDESIVGLMKDIVGANEKEIALMNALTVNLHLLMLSFFKPTPKRYKILLEAKAFPSDHYAIESQLQLHGLNIEESMRMIKPREGEETLRIEDILEVIEKEGDSIAVILFSGVHFYTGQHFNIPAITKAGQAKGCYVGFDLAHAVGNVELYLHDWGVDFACWCSYKYLNAGAGGIAGAFIHEKHAHTIKPALVGWFGHELSTRFKMDNKLQLIPGVCGFRISNPPILLVCSLHASLEIFKQATMKALRKKSVLLTGYLEYLIKHNYGKDKAATKKPVVNIITPSHVEERGCQLTITFSVPNKDVFQELEKRGVVCDKRNPNGIRVAPVPLYNSFHDVYKFTNLLTSILDSAETKN [KYNU] | 0.121 | -0.229 | 61.5 °C | 62.3 °C | -0.273 | -0.415
3 | MEQLRAAARLQIVLGHLGRPSAGAVVAHPTSGTISSASFHPQQFQYTLDNNVLTLEQRKFYEENGFLVIKNLVPDADIQRFRNEFEKICRKEVKPLGLTVMRDVTISKSEYAPSEKMITKVQDFQEDKELFRYCTLPEILKYVECFTGPNIMAMHTMLINKPPDSGKKTSRHPLHQDLHYFPFRPSDLIVCAWTAMEHISRNNGCLVVLPGTHKGSLKPHDYPKWEGGVNKMFHGIQDYEENKARVHLVMEKGDTVFFHPLLIHGSGQNKTQGFRKAISCHFASADCHYIDVKGTSQENIEKEVVGIAHKFFGAENSVNLKDIWMFRARLVKGERTNL [PHYH] | 0.298 | -0.191 | 51.6 °C | 52.4 °C | 2.97 | 2.13
4 | MEQVAEGARVTAVPVSAADSTEELAEVEEGVGVVGEDNDAAARGAEAFGDSEEDGEDVFEVEKILDMKTEGGKVLYKVRWKGYTSDDDTWEPEIHLEDCKEVLLEFRKKIAENKAKAVRKDIQRLSLNNDIFEANSDSDQQSETKEDTSPKKKKKKLRQREEKSPDDLKKKKAKAGKLKDKSKPDLESSLESLVFDLRTKKRISEAKEELKESKKPKKDEVKETKELKKVKKGEIRDLKTKTREDPKENRKTKKEKFVESQVESESSVLNDSPFPEDDSEGLHSDSREEKQNTKSARERAGQDMGLEHGFEKPLDSAMSAEEDTDVRGRRKKKTPRKAEDTRENRKLENKNAFLEKKTVPKKQRNQDRSKSAAELEKLMPVSAQTPKGRRLSGEERGLWSTDSAEEDKETKRNESKEKYQKRHDSDKEEKGRKEPKGLKTLKEIRNAFDLFKLTPEEKNDVSENNRKREEIPLDFKTIDDHKTKENKQSLKERRNTRDETDTWAYIAAEGDQEVLDSVCQADENSDGRQQILSLGMDLQLEWMKLEDFQKHLDGKDENFAATDAIPSNVLRDAVKNGDYITVKVALNSNEEYNLDQEDSSGMTLVMLAAAGGQDDLLRLLITKGAKVNGRQKNGTTALIHAAEKNFLTTVAILLEAGAFVNVQQSNGETALMKACKRGNSDIVRLVIECGADCNILSKHQNSALHFAKQSNNVLVYDLLKNHLETLSRVAEETIKDYFEARLALLEPVFPIACHRLCEGPDFSTDFNYKPPQNIPEGSGILLFIFHANFLGKEVIARLCGPCSVQAVVLNDKFQLPVFLDSHFVYSFSPVAGPNKLFIRLTEAPSAKVKLLIGAYRVQLQ [MPHOSPH8] | -1.16 | 0.82 | 49.3 °C | 50 °C | 0.43 | 1.88
5 | MEQVEILRKFIQRVQAMKSPDHNGEDNFARDFMRLRRLSTKYRTEKIYPTATGEKEENVKKNRYKDILPFDHSRVKLTLKTPSQDSDYINANFIKGVYGPKAYVATQGPLANTVIDFWRMIWEYNVVIIVMACREFEMGRKKCERYWPLYGEDPITFAPFKISCEDEQARTDYFIRTLLLEFQNESRRLYQFHYVNWPDHDVPSSFDSILDMISLMRKYQEHEDVPICIHCSAGCGRTGAICAIDYTWNLLKAGKIPEEFNVFNLIQEMRTQRHSAVQTKEQYELVHRAIAQLFEKQLQLYEIHGAQKIADGVNEINTENMVSSIEPEKQDSPPPKPPRTRSCLVEGDAKEEILQPPEPHPVPPILTPSPPSAFPTVTTVWQDNDRYHPKPVLHMVSSEQHSADLNRNYSKSTELPGKNESTIEQIDKKLERNLSFEIKKVPLQEGPKSFDGNTLLNRGHAIKIKSASPCIADKISKPQELSSDLNVGDTSQNSCVDCSVTQSNKVSVTPPEESQNSDTPPRPDRLPLDEKGHVTWSFHGPENAIPIPDLSEGNSSDINYQTRKTVSLTPSPTTQVETPDLVDHDNTSPLFRTPLSFTNPLHSDDSDSDERNSDGAVTQNKTNISTASATVSAATSTESISTRKVLPMSIARHNIAGTTHSGAEKDVDVSEDSPPPLPERTPESFVLASEHNTPVRSEWSELQSQERSEQKKSEGLITSENEKCDHPAGGIHYEMCIECPPTFSDKREQISENPTEATDIGFGNRCGKPKGPRDPPSEWT [PTPN12] | 0.143 | -0.242 | 49.4 °C | 49.8 °C | -0.24 | 0.678
6 | MEQWRQCGRWLIDCKVLPPNHRVVWPSAVVFDLAQALRDGVLLCQLLHNLSPGSIDLKDINFRPQMSQFLCLKNIRTFLKVCHDKFGLRNSELFDPFDLFDVRDFGKVISAVSRLSLHSIAQNKGIRPFPSEETTENDDDVYRSLEELADEHDLGEDIYDCVPCEDGGDDIYEDIIKVEVQQPMIRYMQKMGMTEDDKRNCCLLEIQETEAKYYRTLEDIEKNYMSPLRLVLSPADMAAVFINLEDLIKVHHSFLRAIDVSVMVGGSTLAKVFLDFKERLLIYGEYCSHMEHAQNTLNQLLASREDFRQKVEECTLKVQDGKFKLQDLLVVPMQRVLKYHLLLKELLSHSAERPERQQLKEALEAMQDLAMYINEVKRDKETLRKISEFQSSIENLQVKLEEFGRPKIDGELKVRSIVNHTKQDRYLFLFDKVVIVCKRKGYSYELKEIIELLFHKMTDDPMNNKDVKKSHGKMWSYGFYLIHLQGKQGFQFFCKTEDMKRKWMEQFEMAMSNIKPDKANANHHSFQMYTFDKTTNCKACKMFLRGTFYQGYMCTKCGVGAHKECLEVIPPCKFTSPADLDASGAGPGPKMVAMQNYHGNPAPPGKPVLTFQTGDVLELLRGDPESPWWEGRLVQTRKSGYFPSSSVKPCPVDGRPPISRPPSREIDYTAYPWFAGNMERQQTDNLLKSHASGTYLIRERPAEAERFAISIKFNDEVKHIKVVEKDNWIHITEAKKFDSLLELVEYYQCHSLKESFKQLDTTLKYPYKSRERSASRASSRSPASCASYNFSFLSPQGLSFASQGPSAPFWSVFTPRVIGTAVARYNFAARDMRELSLREGDVVRIYSRIGGDQGWWKGETNGRIGWFPSTYVEEEGIQ [VAV2] | -0.0231 | -0.269 | 48.7 °C | 48.9 °C | 0.0861 | 1.36
7 | MERAGATSRGGQAPGFLLRLHTEGRAEAARVQEQDLRQWGLTGIHLRSYQLEGVNWLAQRFHCQNGCILGDEMGLGKTCQTIALFIYLAGRLNDEGPFLILCPLSVLSNWKEEMQRFAPGLSCVTYAGDKEERACLQQDLKQESRFHVLLTTYEICLKDASFLKSFPWSVLVVDEAHRLKNQSSLLHKTLSEFSVVFSLLLTGTPIQNSLQELYSLLSFVEPDLFSKEEVGDFIQRYQDIEKESESASELHKLLQPFLLRRVKAEVATELPKKTEVVIYHGMSALQKKYYKAILMKDLDAFENETAKKVKLQNILSQLRKCVDHPYLFDGVEPEPFEVGDHLTEASGKLHLLDKLLAFLYSGGHRVLLFSQMTQMLDILQDYMDYRGYSYERVDGSVRGEERHLAIKNFGQQPIFVFLLSTRAGGVGMNLTAADTVIFVDSDFNPQNDLQAAARAHRIGQNKSVKVIRLIGRDTVEEIVYRKAASKLQLTNMIIEGGHFTLGAQKPAADADLQLSEILKFGLDKLLASEGSTMDEIDLESILGETKDGQWVSDALPAAEGGSRDQEEGKNHMYLFEGKDYSKEPSKEDRKSFEQLVNLQKTLLEKASQEGRSLRNKGSVLIPGLVEGSTKRKRVLSPEELEDRQKKRQEAAAKRRRLIEEKKRQKEEAEHKKKMAWWESNNYQSFCLPSEESEPEDLENGEESSAELDYQDPDATSLKYVSGDVTHPQAGAEDALIVHCVDDSGHWGRGGLFTALEKRSAEPRKIYELAGKMKDLSLGGVLLFPVDDKESRNKGQDLLALIVAQHRDRSNVLSGIKMAALEEGLKKIFLAAKKKKASVHLPRIGHATKGFNWYGTERLIRKHLAARGIPTYIYYFPRSKSAVLHSQSSSSSSRQLVP [CHD1L] | -0.105 | -0.0342 | 46.9 °C | 49 °C | 0.274 | 0.334
